Source: US20030040044A1

Tests used:
[1] = molecular target: αVβ3 integrin on human cells (human) (UniProt P06756); experiment: saturation binding of 125-I ReoPro to A375S2 cells (express αvβ3 and αvβ5; ReoPro showed no binding to αvβ5), n = 3
[2] = molecular target: αVβ3 integrin on human cells (human) (UniProt P06756); experiment: saturation binding of 125-I ReoPro to A375S2 cells, Bmax, n = 6
[3] = molecular target: αVβ3 integrin on human cells (human) (UniProt P06756)
[4] = molecular target: αVβ3 integrin on human cells (human) (UniProt P06756); experiment: saturation binding of 125-I ReoPro to M21 cells (express αvβ3 and αvβ5; ReoPro showed no binding to αvβ5), n = 3
[5] = molecular target: αVβ3 integrin on human cells (human) (UniProt P06756); remark: listed apart in the source
[6] = molecular target: αVβ3 integrin on human cells (human) (UniProt P06756); experiment: saturation binding of 125-I ReoPro to M21 cells, Bmax, n = 7

B1: ReoPro (Fab, INN chains, looked up, V domains shown)
VH: EVQLQQSGTVLARPGASVKMSCEASGYTFTNYWMHWVKQRPGQGLEWIGAIYPGNSDTSYIQKFKGKAKLTAVTSTTSVYMELSSLTNEDSAVYYCTLYDGYYVFAYWGQGTLVTVSA
VL: EIVLTQSPVTLSVTPGDSVSLSCRASRDISNNLHWFQQTSHESPRLLIKYASQSMSGIPSRFSGSGSGTDFTLSINSVETEDFGMYFCQQTNSWPYTFGGGTKLEIK
modifications: Fab 125I label in some assays
Q: Which results are given for B1?
A: Kd [1]: 22 nM; Receptors per cell (receptors per cell) [2]: 370000; Adhesion (%) of A375S.2 cells to fibrin (% of adhesion without antibody) [3]: 12.9; Adhesion (%) of A375S.2 cells to fibrinogen (% of adhesion without antibody) [3]: 6.5; Adhesion (%) of A375S.2 cells to gelatin (% of adhesion without antibody) [3]: 6; Adhesion (%) of A375S.2 cells to vitronectin (% of adhesion without antibody) [3]: 38.1; Kd [4]: 10 nM; Adhesion (%) of HUVEC to fibrin (% of adhesion without antibody) [5]: 35.8; Adhesion (%) of HUVEC to fibrinogen (% of adhesion without antibody) [5]: 8.7; Adhesion (%) of HUVEC to gelatin (% of adhesion without antibody) [5]: 2.5; Adhesion (%) of HUVEC to vitronectin (% of adhesion without antibody) [5]: 54.9; Receptors per cell (receptors per cell) [6]: 660000
